Publication PMC9482650, “Quantitative fragmentomics allow affinity mapping of interactomes” (Nature Communications, 2022)
Each block holds one binder with its values, some of them ahead of it.

Columns and labels:
Assay in all cases: holdup assay
Design in all cases: key: below the threshold = too weak to quantify, mostly under pKd 3.1 to 4
[1] = molecular target: GRID2IP_1, A4D2P6
[2] = molecular target: T1, SNTA1, Q13424
T1 sequence (Q13424 82-180, limits assumed, looked up): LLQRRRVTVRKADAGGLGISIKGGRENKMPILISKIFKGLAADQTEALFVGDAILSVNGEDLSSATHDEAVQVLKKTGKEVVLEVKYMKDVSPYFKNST

[3] = molecular target: IL16_4, Q14005
Chain of IL16_4, Q14005 (Q14005 1229-1329): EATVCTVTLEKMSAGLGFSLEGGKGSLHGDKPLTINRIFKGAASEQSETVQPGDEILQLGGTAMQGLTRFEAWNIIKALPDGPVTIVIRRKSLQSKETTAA

[4] = molecular target: DLG2_2, Q15700
[5] = molecular target: MAGI2_2, Q86UL8
Chain of MAGI2_2, Q86UL8 (Q86UL8 410-522): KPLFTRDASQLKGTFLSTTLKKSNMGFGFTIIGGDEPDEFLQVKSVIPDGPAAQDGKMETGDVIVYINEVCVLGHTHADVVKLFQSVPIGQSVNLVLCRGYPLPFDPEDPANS

[6] = molecular target: DLG5_1, Q8TDM6
Chain of DLG5_1, Q8TDM6 (Q8TDM6 617-713): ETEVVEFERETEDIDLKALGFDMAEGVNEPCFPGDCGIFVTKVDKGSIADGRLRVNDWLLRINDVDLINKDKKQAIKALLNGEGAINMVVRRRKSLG

[7] = molecular target: NHERF2_2, Q15599
Chain of NHERF2_2, Q15599 (Q15599 142-238): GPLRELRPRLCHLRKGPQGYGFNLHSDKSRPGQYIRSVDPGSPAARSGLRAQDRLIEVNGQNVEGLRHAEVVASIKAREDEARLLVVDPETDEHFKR

[8] = molecular target: GOPC, Q9HD26
[9] = molecular target: CASK, O14936
Chain of CASK, O14936 (O14936 487-570): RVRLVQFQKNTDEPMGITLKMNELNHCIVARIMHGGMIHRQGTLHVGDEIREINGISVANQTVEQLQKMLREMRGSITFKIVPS

[10] = molecular target: TJP1_3, Q07157
Chain of TJP1_3, Q07157 (Q07157 416-512): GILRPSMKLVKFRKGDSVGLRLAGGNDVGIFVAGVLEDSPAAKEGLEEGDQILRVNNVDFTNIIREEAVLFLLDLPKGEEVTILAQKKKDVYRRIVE

[11] = molecular target: T2, NHERF3_1, Q5T2W1
T2 sequence (Q5T2W1 4-100, limits assumed, looked up): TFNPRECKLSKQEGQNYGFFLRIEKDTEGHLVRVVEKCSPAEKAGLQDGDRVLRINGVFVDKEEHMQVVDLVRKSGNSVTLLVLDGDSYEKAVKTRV

[12] = molecular target: T3, RAPGEF6, Q8TEU7
T3 sequence (Q8TEU7 525-625, limits assumed, looked up): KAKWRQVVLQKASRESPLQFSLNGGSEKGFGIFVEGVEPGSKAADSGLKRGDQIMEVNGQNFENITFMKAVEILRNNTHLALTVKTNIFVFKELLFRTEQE

[13] = molecular target: T4, PARD3B_1, Q8TEW8
T4 sequence (Q8TEW8 196-299, limits assumed, looked up): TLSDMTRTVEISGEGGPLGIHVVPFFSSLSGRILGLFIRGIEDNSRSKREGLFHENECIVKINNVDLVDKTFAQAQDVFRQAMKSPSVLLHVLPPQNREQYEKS

[14] = molecular target: T5, MPDZ_12, O75970
T5 sequence (O75970 1857-1958, limits assumed, looked up): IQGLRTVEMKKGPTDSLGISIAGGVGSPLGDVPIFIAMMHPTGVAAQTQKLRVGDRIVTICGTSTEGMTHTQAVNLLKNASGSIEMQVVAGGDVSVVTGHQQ

[15] = molecular target: DLG2_3, Q15700
[16] = molecular target: T6, SNTG1, Q9NSN8
T6 sequence (Q9NSN8 52-150, limits assumed, looked up): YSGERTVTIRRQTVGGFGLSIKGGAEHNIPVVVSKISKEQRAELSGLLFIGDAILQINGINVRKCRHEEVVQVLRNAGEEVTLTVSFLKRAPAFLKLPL

[17] = molecular target: T7, LIN7C, Q9NUP9
T7 sequence (Q9NUP9 88-185, limits assumed, looked up): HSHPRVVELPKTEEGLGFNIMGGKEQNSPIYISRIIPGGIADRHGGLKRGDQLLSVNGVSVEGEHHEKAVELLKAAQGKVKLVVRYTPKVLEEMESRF

[18] = molecular target: Inadl_1, Q8NI35
Chain of Inadl_1, Q8NI35 (Q8NI35 113-229): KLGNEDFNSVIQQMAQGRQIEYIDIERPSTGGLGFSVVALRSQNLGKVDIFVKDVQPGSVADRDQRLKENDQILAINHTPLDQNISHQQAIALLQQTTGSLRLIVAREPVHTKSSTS

[19] = molecular target: T8, MPDZ_10, O75970
T8 sequence (O75970 1624-1722, limits assumed, looked up): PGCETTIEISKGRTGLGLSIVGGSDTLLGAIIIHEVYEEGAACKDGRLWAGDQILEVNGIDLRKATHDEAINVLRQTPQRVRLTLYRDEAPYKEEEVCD

[20] = molecular target: LDB3, O75112
Chain of LDB3, O75112 (O75112 1-94): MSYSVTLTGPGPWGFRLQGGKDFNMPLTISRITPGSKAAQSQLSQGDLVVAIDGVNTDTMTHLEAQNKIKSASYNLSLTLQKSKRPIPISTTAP

[21] = molecular target: FRMPD4, Q14CM0
Chain of FRMPD4, Q14CM0 (Q14CM0 67-160): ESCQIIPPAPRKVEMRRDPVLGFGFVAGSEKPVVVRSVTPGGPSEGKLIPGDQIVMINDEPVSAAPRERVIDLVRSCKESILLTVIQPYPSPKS

[22] = molecular target: T9, APBA3_1, O96018
T9 sequence (O96018 389-490, limits assumed, looked up): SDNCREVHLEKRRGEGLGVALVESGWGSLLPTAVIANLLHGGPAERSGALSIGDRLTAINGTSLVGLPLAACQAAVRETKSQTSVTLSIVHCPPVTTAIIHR

[23] = molecular target: GRIP2_6, Q9C0E4
Chain of GRIP2_6, Q9C0E4 (Q9C0E4 648-740): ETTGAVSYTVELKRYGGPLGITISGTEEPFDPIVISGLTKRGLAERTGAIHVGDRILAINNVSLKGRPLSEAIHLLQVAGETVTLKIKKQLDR

[24] = molecular target: GIPC2, Q8TF65
Chain of GIPC2, Q8TF65 (Q8TF65 112-203): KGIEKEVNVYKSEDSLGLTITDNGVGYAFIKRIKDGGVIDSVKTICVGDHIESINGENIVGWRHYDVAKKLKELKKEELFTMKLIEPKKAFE

[25] = molecular target: SCRIB_1, Q14160
Chain of SCRIB_1, Q14160 (Q14160 718-814): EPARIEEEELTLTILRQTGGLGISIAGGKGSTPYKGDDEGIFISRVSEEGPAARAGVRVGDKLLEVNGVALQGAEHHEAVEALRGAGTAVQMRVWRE

[26] = molecular target: MAGI2_3, Q86UL8
Chain of MAGI2_3, Q86UL8 (Q86UL8 600-682): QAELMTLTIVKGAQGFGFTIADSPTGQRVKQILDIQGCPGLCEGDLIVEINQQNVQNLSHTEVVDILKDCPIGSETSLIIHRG

[27] = molecular target: FRMPD2_2, Q68DX3
Chain of FRMPD2_2, Q68DX3 (Q68DX3 944-1038): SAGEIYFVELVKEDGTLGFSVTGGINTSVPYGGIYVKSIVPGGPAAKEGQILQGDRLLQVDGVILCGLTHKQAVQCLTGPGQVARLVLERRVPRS

[28] = molecular target: T10, DFNB31_3, Q9P202
T10 sequence (Q9P202 811-907, limits assumed, looked up): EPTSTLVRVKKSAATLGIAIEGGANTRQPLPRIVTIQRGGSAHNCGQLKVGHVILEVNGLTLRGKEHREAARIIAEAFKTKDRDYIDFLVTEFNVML

[29] = plain residues with an end cap or a label only (N-terminal biotin on a linker: ado-ado)
[30] = plain residues with an end cap or a label only (N-terminal biotin on a linker: ahx)

Chain of GRID2IP_1, A4D2P6 (A4D2P6 1-87): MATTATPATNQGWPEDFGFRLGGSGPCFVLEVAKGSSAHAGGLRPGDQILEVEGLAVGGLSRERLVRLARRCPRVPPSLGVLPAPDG

pKd [1, 29]: below the threshold
pKd [2, 29]: 5.27
pKd [3, 29]: below the threshold
pKd [4, 29]: 5.3
pKd [5, 29]: 4.56
pKd [6, 29]: below the threshold
pKd [7, 29]: below the threshold
pKd [8, 29]: 3.51
pKd [9, 29]: below the threshold
pKd [10, 29]: below the threshold
pKd [11, 29]: 4.03
pKd [12, 29]: below the threshold
pKd [13, 29]: below the threshold
pKd [14, 29]: below the threshold
pKd [15, 29]: 4.54
pKd [16, 29]: 5.23
pKd [17, 29]: 3.67
pKd [18, 29]: below the threshold
pKd [19, 29]: below the threshold
pKd [20, 29]: below the threshold
pKd [21, 29]: below the threshold
pKd [22, 29]: below the threshold
pKd [23, 29]: below the threshold
pKd [24, 29]: 4.32
pKd [25, 29]: 4.88
pKd [26, 29]: 3.53
pKd [27, 29]: 3.5
pKd [28, 29]: below the threshold
Binder: ARGPPRESEV [FAM110D, Q8TAY7]

pKd [1, 30]: below the threshold
pKd [2, 30]: 5.9
pKd [3, 30]: below the threshold
pKd [4, 30]: 4.17
pKd [5, 30]: 4.52
pKd [6, 30]: below the threshold
pKd [7, 30]: 3.64
pKd [8, 30]: 4.28
pKd [9, 30]: below the threshold
pKd [10, 30]: below the threshold
pKd [11, 30]: 5.12
pKd [12, 30]: below the threshold
pKd [13, 30]: below the threshold
pKd [14, 30]: below the threshold
pKd [15, 30]: 4.63
pKd [16, 30]: 5.24
pKd [17, 30]: 4.59
pKd [18, 30]: below the threshold
pKd [19, 30]: 4.29
pKd [20, 30]: 3.53
pKd [21, 30]: below the threshold
pKd [22, 30]: below the threshold
pKd [23, 30]: below the threshold
pKd [24, 30]: 4.26
pKd [25, 30]: 4.15
pKd [26, 30]: 4.85
pKd [27, 30]: 5.31
pKd [28, 30]: below the threshold
Binder: QDEKVKESYV [ABCA1, O95477]

pKd [1, 29]: below the threshold
pKd [2, 29]: 3.63
pKd [3, 29]: below the threshold
pKd [4, 29]: below the threshold
pKd [5, 29]: 3.6
pKd [6, 29]: below the threshold
pKd [7, 29]: below the threshold
pKd [8, 29]: below the threshold
pKd [9, 29]: below the threshold
pKd [10, 29]: below the threshold
pKd [11, 29]: 4.48
pKd [12, 29]: below the threshold
pKd [13, 29]: 3.65
pKd [14, 29]: below the threshold
pKd [15, 29]: below the threshold
pKd [16, 29]: below the threshold
pKd [17, 29]: 3.99
pKd [18, 29]: below the threshold
pKd [19, 29]: below the threshold
pKd [20, 29]: below the threshold
pKd [21, 29]: below the threshold
pKd [22, 29]: below the threshold
pKd [23, 29]: below the threshold
pKd [24, 29]: below the threshold
pKd [25, 29]: below the threshold
pKd [26, 29]: below the threshold
pKd [27, 29]: below the threshold
pKd [28, 29]: below the threshold
Binder: ARSAAASNYV [CLDN4, O14493]
